From patent US9176064B2, “Bisubstrate fluorescent probes for protein kinase CK2” (University of Tartu, priority 2012, dated 2015)
Where a SMILES comes first, the peptide text is derived from it. [ ]: non-standard residue; d: D form. The star is where a group is joined. X1 = O=C(CCCCCCCn1cnc2c(Br)c(Br)c(Br)c(Br)c21)*

Key:
Test in all cases: Kinase panel residual activity
Format in all cases: biochemical
Details in all cases: compound at 1 micromolar
[1] = target: ERK5 (Homo sapiens, UniProt Q13164)
Chain of ERK5 (Q13164 whole entry, species assumed): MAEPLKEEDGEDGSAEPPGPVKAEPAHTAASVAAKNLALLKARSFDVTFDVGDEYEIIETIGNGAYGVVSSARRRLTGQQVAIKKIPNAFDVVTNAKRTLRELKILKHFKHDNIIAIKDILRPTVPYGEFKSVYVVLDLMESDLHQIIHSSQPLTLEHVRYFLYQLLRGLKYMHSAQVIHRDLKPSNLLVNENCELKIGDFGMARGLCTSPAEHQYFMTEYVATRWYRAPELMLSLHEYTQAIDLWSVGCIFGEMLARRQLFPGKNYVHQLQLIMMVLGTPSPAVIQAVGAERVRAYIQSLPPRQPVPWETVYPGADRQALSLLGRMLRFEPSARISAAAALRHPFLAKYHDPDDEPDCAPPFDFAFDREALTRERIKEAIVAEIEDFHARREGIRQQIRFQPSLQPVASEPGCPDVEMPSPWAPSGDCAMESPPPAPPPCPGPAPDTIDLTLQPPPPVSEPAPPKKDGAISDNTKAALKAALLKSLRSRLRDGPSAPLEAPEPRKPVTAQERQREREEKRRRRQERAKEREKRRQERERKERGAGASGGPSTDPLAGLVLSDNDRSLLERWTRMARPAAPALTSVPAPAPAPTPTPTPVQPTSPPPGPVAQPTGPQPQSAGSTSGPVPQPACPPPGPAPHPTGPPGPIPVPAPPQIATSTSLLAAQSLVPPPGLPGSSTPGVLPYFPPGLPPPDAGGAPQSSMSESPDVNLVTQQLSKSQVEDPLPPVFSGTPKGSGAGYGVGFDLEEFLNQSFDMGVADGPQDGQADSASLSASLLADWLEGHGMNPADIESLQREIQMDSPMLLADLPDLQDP

[2] = target: PIM2 (Homo sapiens, UniProt Q9P1W9)
Chain of PIM2 (Q9P1W9 whole entry, species assumed): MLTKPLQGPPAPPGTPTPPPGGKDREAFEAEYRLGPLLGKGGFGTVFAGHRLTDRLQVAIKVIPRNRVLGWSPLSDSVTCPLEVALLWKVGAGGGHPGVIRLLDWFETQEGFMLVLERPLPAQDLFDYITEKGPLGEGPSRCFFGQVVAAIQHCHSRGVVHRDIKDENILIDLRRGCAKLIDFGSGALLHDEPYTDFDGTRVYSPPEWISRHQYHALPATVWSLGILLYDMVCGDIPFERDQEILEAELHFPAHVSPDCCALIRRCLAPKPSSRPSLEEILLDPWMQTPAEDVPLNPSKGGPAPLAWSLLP

[3] = target: YES1 (Homo sapiens, UniProt P07947)
Chain of YES1 (P07947 whole entry, species assumed): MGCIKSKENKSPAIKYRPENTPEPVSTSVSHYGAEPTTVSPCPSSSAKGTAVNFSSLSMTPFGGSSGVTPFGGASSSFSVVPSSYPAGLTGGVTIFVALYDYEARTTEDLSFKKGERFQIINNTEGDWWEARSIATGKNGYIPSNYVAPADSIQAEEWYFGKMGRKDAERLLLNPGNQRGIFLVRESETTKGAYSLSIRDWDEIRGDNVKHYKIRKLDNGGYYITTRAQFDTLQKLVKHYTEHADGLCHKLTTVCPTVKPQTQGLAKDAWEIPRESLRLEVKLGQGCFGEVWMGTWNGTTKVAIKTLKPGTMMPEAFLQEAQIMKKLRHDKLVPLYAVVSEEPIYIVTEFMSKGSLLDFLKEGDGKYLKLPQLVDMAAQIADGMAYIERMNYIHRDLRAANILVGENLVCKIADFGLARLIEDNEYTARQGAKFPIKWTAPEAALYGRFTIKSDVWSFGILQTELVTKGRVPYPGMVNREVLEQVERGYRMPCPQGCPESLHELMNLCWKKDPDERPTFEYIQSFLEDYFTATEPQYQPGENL

[4] = target: TTBK1 (Homo sapiens, UniProt Q5TCY1)
[5] = target: CDK2-Cyclin A (Homo sapiens, UniProt P24941)
[6] = target: TESK1 (Homo sapiens, UniProt Q15569)
[7] = target: CK1δ (Homo sapiens, UniProt P48730)
Chain of CK1δ (P48730 whole entry): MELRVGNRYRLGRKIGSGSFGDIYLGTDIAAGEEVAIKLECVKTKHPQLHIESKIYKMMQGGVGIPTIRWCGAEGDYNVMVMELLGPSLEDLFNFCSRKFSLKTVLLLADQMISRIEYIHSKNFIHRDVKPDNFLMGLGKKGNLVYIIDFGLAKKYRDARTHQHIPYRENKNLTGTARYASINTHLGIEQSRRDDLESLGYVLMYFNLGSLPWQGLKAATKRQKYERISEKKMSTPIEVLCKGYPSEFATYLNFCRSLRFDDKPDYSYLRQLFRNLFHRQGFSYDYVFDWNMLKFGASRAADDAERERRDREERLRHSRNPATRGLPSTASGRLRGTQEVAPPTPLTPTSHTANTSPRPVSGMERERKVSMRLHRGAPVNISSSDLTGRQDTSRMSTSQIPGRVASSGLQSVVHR

[8] = target: MSK1 (Homo sapiens, UniProt O75582)
Chain of MSK1 (O75582 whole entry, species assumed): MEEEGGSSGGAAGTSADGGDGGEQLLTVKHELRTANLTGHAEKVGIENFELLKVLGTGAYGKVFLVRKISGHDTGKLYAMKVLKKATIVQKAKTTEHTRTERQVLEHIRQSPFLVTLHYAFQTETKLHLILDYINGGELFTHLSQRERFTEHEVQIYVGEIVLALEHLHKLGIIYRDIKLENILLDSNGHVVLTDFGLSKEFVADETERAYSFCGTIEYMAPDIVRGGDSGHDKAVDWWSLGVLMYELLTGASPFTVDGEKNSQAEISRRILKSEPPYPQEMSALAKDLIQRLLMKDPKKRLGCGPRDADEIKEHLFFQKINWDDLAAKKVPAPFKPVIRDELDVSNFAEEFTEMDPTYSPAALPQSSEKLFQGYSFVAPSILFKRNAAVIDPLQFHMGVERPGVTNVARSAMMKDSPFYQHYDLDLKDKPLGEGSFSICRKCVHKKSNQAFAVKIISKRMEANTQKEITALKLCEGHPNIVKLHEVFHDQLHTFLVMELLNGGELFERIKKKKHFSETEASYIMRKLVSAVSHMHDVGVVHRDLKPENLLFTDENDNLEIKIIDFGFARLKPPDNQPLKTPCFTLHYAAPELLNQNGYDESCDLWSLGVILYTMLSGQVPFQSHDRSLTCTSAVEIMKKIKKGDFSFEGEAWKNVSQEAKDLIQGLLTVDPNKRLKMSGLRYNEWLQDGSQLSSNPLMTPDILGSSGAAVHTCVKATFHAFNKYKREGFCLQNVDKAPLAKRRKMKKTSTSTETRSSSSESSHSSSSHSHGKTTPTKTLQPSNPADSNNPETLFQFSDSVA

[9] = target: ROCK 2 (Homo sapiens, UniProt O75116)
Chain of ROCK 2 (O75116 whole entry, species assumed): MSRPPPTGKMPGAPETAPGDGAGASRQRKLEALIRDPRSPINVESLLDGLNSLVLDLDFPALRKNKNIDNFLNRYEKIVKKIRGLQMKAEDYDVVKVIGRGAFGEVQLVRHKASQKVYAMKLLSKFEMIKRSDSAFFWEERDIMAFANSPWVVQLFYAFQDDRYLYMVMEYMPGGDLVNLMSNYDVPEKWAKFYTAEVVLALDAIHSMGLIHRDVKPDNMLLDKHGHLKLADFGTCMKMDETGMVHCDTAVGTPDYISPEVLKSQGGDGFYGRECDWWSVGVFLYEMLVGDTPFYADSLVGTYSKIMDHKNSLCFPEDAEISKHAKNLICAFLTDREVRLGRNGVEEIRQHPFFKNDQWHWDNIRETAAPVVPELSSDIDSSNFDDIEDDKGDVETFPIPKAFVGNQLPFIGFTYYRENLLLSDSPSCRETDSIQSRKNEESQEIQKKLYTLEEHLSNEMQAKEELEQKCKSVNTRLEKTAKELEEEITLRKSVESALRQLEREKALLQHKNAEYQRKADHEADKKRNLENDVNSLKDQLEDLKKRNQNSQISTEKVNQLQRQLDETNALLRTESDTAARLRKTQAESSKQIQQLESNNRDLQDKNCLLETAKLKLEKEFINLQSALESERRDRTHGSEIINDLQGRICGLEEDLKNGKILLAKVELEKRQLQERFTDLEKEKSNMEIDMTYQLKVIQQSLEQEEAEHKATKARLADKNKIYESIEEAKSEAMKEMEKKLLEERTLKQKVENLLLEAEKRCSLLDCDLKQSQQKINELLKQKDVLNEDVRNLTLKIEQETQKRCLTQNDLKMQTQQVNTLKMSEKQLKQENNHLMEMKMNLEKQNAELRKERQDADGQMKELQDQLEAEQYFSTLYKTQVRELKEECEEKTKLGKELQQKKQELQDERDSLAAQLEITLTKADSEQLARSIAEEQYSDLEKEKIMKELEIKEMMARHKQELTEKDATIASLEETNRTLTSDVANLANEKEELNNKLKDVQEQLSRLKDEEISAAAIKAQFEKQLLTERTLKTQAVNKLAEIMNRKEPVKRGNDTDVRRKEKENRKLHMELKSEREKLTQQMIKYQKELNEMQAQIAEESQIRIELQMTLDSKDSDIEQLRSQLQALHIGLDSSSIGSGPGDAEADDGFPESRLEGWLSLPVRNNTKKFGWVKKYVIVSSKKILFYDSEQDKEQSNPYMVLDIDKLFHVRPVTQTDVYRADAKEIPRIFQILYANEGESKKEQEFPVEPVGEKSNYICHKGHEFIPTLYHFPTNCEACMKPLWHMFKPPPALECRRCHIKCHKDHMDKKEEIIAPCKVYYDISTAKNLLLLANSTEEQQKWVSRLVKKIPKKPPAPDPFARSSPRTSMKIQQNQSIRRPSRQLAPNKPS

[10] = target: MLK3 (Homo sapiens, UniProt Q16584)
[11] = target: BRK (Homo sapiens, UniProt Q13882)
[12] = target: S6K1 (Homo sapiens, UniProt P23443)
[13] = target: Src (Homo sapiens, UniProt P12931)
Chain of Src (P12931 whole entry, species assumed): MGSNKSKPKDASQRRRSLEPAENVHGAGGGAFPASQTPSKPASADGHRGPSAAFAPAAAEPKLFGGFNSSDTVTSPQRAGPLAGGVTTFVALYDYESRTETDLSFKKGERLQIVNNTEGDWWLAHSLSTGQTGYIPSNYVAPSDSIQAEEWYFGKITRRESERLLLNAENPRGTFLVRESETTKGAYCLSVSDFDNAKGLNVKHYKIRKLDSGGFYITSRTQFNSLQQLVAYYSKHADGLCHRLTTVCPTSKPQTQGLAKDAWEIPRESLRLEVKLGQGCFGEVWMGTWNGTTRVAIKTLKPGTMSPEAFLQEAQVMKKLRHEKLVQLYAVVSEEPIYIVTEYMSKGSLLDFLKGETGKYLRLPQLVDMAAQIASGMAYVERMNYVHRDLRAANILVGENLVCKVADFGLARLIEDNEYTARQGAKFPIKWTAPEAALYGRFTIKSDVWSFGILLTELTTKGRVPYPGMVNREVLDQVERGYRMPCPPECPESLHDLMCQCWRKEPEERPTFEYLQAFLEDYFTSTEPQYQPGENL

[14] = target: T1, NUAK1 (Homo sapiens, UniProt O60285)
T1 sequence (O60285 1-661): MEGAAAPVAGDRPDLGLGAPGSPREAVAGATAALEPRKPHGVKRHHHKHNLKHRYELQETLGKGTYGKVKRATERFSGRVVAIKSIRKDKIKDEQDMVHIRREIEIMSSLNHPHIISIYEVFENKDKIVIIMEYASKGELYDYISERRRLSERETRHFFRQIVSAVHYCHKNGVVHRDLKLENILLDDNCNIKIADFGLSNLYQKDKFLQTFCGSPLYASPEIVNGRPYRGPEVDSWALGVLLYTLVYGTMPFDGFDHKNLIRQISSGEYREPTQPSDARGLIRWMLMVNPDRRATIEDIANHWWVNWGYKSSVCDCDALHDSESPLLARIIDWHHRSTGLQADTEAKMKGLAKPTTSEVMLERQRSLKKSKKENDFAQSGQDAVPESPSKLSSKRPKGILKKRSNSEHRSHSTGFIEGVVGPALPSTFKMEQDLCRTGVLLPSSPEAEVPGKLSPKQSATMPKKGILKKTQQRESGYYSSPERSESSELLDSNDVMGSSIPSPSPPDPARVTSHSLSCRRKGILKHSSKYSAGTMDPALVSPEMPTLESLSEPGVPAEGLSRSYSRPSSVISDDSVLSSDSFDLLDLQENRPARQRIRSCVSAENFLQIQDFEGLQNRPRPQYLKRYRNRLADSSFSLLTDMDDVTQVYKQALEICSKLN

Work on `NCCCC[C@H](NC(=O)[C@H](CC(=O)O)NC(=O)[C@H](CC(=O)O)NC(=O)[C@H](CC(=O)O)NC(=O)[C@H](CC(=O)O)NC(=O)[C@H](CC(=O)O)NC(=O)[C@@H](CC(=O)O)NC(=O)CCCCCCCn1cnc2c(Br)c(Br)c(Br)c(Br)c21)C(=O)O` [TBBI-OcA-(D-Asp)-(L-Asp)5-(L-Lys)-OH] (X1-[dD]DDDDDK-OH) yielded a remaining activity at 1 µM [1] of 98%, a remaining activity at 1 µM [2] of 92% and a remaining activity at 1 µM [3] of 103%. The remaining activity at 1 µM [4] was 90%, the remaining activity at 1 µM [5] was 64% and the remaining activity at 1 µM [6] was 81%. The remaining activity at 1 µM [7] was 49%, the remaining activity at 1 µM [8] was 102% and the remaining activity at 1 µM [9] was 91%. For the same compound, the remaining activity at 1 µM [10] was 89%, the remaining activity at 1 µM [11] was 113% and the remaining activity at 1 µM [12] was 62%. The remaining activity at 1 µM [13] was 57% and the remaining activity at 1 µM [14] was 58%.
